This passage reports Km, kcat and kcat/Km results from publication PMC4069103, “Computational Design of a pH Stable Enzyme: Understanding Molecular Mechanism of Penicillin Acylase's Adaptation to Alkaline Conditions” (PLoS ONE, 2014).

For orientation: Km means the substrate concentration at which the rate is half of its maximum. A word on the kcat: it is the number of substrate molecules converted per active site and unit of time at saturation. The term kcat/Km denotes the second-order rate constant that governs catalysis at low substrate concentration.

Substrate in this series: O=C(Cc1ccccc1)Nc1ccc([N+](=O)[O-])c(C(=O)O)c1
Put plainly: purified protein. It is filed as biochemical, Escherichia coli. The settings on record: pH 7.5, 25°C, 10 mM phosphate, 0.1 M KCl, hydrolysis.

B1: penicillin acylase from Escherichia coli (EcPA) (Escherichia coli) (protein)
chain 1: EQSSSEIKIVRDEYGMPHIYANDTWHLFYGYGYVVAQDRLFQMEMARRSTQGTVAEVLGKDFVKFDKDIRRNYWPDAIRAQIAALSPEDMSILQGYADGMNAWIDKVNTNPETLLPKQFNTFGFTPKRWEPFDVAMIFVGTMANRFSDSTSEIDNLALLTALKDKYGVSQGMAVFNQLKWLVNPSAPTTIAVQESNYPLKFNQQNSQTA
chain 2: SNMWVIGKSKAQDAKAIMVNGPQFGWYAPAYTYGIGLHGAGYDVTGNTPFAYPGLVFGHNGVISWGSTAGFGDDVDIFAERLSAEKPGYYLHNGKWVKMLSREETITVKNGQAETFTVWRTVHGNILQTDQTTQTAYAKSRAWDGKEVASLLAWTHQMKAKNWQEWTQQAAKQALTINWYYADVNGNIGYVHTGAYPDRQSGHDPRLPVPGTGKWDWKGLLPFEMNPKVYNPQSGYIANWNNSPQKDYPASDLFAFLWGGADRVTEIDRLLEQKPRLTADQAWDVIRQTSRQDLNLRLFLPTLQAATSGLTQSDPRRQLVETLTRWDGINLLNDDGKTWQQPGSAILNVWLTSMLKRTVVAAVPMPFDKWYSASGYETTQDGPTGSLNISVGAKILYEAVQGDKSPIPQAVDLFAGKPQQEVVLAALEDTWETLSKRYGNNVSNWKTPAMALTFRANNFFGVPQAAAEETRHQAEYQNRGTENDMIVFSPTTSDRPVLAWDVVAPGQSGFIAPDGTVDKHYEDQLKMYENFGRKSLWLTKQDVEAHKESQEVLHVQR
notes: heterodimer of alpha (209 residues) and beta (557 residues) chains matured from one pac precursor; modified pBR322 vector with cat gene, expressed in E. coli TG-1, osmotic shock, hydrophobic chromatography; no tag mentioned
With B1, the Km was determined as 25.0 ± 0.8 µM, the kcat came to 25 ± 1.4 s⁻¹ and the kcat/Km amounted to 1e+06 ± 90000 M⁻¹ s⁻¹.
